Source: US20190276511A1 (BIONTECH RNA PHARMACEUTICALS, published 2019)
Like-named read-outs stand apart in the source and are kept apart here.

T1: OX40 receptor on cells (human, UniProt P43489 29-277)
T1 sequence (looked up): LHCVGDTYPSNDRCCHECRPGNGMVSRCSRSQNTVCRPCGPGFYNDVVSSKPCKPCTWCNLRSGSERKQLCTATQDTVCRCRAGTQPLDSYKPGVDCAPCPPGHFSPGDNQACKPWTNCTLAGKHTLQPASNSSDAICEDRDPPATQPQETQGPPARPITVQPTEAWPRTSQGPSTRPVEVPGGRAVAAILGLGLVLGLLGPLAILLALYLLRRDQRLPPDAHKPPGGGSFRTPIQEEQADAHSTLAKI

T2: CD27-Fc (human, UniProt P26842 20-191)
T2 construct: extracellular domain; hinge included for covalent assembly; also called CD27 receptor-Fc fusion protein; not shown: human Fc gamma 1 region including the hinge region
T2 sequence (looked up): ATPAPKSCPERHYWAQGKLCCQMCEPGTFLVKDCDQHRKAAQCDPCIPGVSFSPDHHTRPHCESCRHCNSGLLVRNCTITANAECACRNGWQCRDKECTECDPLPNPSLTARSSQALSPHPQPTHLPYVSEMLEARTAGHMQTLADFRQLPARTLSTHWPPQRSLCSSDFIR

T3: OX40-Fc (human, UniProt P43489 29-214)
T3 construct: extracellular domain; hinge included for covalent assembly; also called OX40 receptor-Fc fusion protein; not shown: human Fc gamma 1 region including the hinge region
T3 sequence (looked up): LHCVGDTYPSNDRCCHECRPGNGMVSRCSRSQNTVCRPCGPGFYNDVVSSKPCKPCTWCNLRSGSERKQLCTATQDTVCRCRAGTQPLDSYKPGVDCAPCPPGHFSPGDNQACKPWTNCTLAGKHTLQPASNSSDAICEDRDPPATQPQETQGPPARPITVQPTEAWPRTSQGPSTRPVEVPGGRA

B1: scCD27L-scOX40L (ligand)
chain: SLGWDVAELQLNHTGPQQDPRLYWQGGPALGRSFLHGPELDKGQLRIHRDGIYMVHIQVTLAICSSTTASRHHPTTLAVGICSPASRSISLLRLSFHQGCTIASQRLTPLARGDTLCTNLTGTLLPSRNTDETFFGVQWVRPGGGSGGGSLGWDVAELQLNHTGPQQDPRLYWQGGPALGRSFLHGPELDKGQLRIHRDGIYMVHIQVTLAICSSTTASRHHPTTLAVGICSPASRSISLLRLSFHQGCTIASQRLTPLARGDTLCTNLTGTLLPSRNTDETFFGVQWVRPGGGSGGGSLGWDVAELQLNHTGPQQDPRLYWQGGPALGRSFLHGPELDKGQLRIHRDGIYMVHIQVTLAICSSTTASRHHPTTLAVGICSPASRSISLLRLSFHQGCTIASQRLTPLARGDTLCTNLTGTLLPSRNTDETFFGVQWVRPGGGGSGGGTGGGGSQVSHRYPRIQSIKVQFTEYKKEKGFILTSQKEDEIMKVQNNSVIINCDGFYLISLKGYFSQEVNISLHYQKDEEPLFQLKKVRSVNSLMVASLTYKDKVYLNVTTDNTSLDDFHVNGGELILIHQNPGEFCVLGGGSGGGQVSHRYPRIQSIKVQFTEYKKEKGFILTSQKEDEIMKVQNNSVIINCDGFYLISLKGYFSQEVNISLHYQKDEEPLFQLKKVRSVNSLMVASLTYKDKVYLNVTTDNTSLDDFHVNGGELILIHQNPGEFCVLGGGSGGGQVSHRYPRIQSIKVQFTEYKKEKGFILTSQKEDEIMKVQNNSVIINCDGFYLISLKGYFSQEVNISLHYQKDEEPLFQLKKVRSVNSLMVASLTYKDKVYLNVTTDNTSLDDFHVNGGELILIHQNPGEFCVL
notes: scDuokine from HEK293, FLAG-purified; VH leader left out; also called single-chain Duokine scCD27L-scOX40L; not shown: N-terminal FLAG tag
B2: CD27L-OX40L (ligand)
chain: SLGWDVAELQLNHTGPQQDPRLYWQGGPALGRSFLHGPELDKGQLRIHRDGIYMVHIQVTLAICSSTTASRHHPTTLAVGICSPASRSISLLRLSFHQGCTIASQRLTPLARGDTLCTNLTGTLLPSRNTDETFFGVQWVRPGGGGSGGGGSGGGGSQVSHRYPRIQSIKVQFTEYKKEKGFILTSQKEDEIMKVQNNSVIINCDGFYLISLKGYFSQEVNISLHYQKDEEPLFQLKKVRSVNSLMVASLTYKDKVYLNVTTDNTSLDDFHVNGGELILIHQNPGEFCVL
notes: Duokine from HEK293, FLAG-purified; VH leader left out; homotrimer by SEC; also called Duokine CD27L-OX40L; not shown: N-terminal FLAG tag
B3: CD40L-OX40L (ligand)
chain: GDQNPQIAAHVISEASSKTTSVLQWAEKGYYTMSNNLVTLENGKQLTVKRQGLYYIYAQVTFCSNREASSQAPFIASLCLKSPGRFERILLRAANTHSSAKPCGQQSIHLGGVFELQPGASVFVNVTDPSQVSHGTGFTSFGLLKLGGGGSGGGGSGGGGSQVSHRYPRIQSIKVQFTEYKKEKGFILTSQKEDEIMKVQNNSVIINCDGFYLISLKGYFSQEVNISLHYQKDEEPLFQLKKVRSVNSLMVASLTYKDKVYLNVTTDNTSLDDFHVNGGELILIHQNPGEFCVL
notes: Duokine from HEK293, FLAG-purified; VH leader left out; homotrimer by SEC; also called Duokine CD40L-OX40L; not shown: N-terminal FLAG tag
B4: OX40L-CD40L (ligand)
chain: QVSHRYPRIQSIKVQFTEYKKEKGFILTSQKEDEIMKVQNNSVIINCDGFYLISLKGYFSQEVNISLHYQKDEEPLFQLKKVRSVNSLMVASLTYKDKVYLNVTTDNTSLDDFHVNGGELILIHQNPGEFCVLGGGGSGGGGSGGGGSGDQNPQIAAHVISEASSKTTSVLQWAEKGYYTMSNNLVTLENGKQLTVKRQGLYYIYAQVTFCSNREASSQAPFIASLCLKSPGRFERILLRAANTHSSAKPCGQQSIHLGGVFELQPGASVFVNVTDPSQVSHGTGFTSFGLLKL
notes: Duokine from HEK293, FLAG-purified; VH leader left out; homotrimer by SEC; also called Duokine OX40L-CD40L; not shown: N-terminal FLAG tag
B5: scCD40L-scOX40L (ligand)
chain: GDQNPQIAAHVISEASSKTTSVLQWAEKGYYTMSNNLVTLENGKQLTVKRQGLYYIYAQVTFCSNREASSQAPFIASLCLKSPGRFERILLRAANTHSSAKPCGQQSIHLGGVFELQPGASVFVNVTDPSQVSHGTGFTSFGLLKLGGGSGGGGDQNPQIAAHVISEASSKTTSVLQWAEKGYYTMSNNLVTLENGKQLTVKRQGLYYIYAQVTFCSNREASSQAPFIASLCLKSPGRFERILLRAANTHSSAKPCGQQSIHLGGVFELQPGASVFVNVTDPSQVSHGTGFTSFGLLKLGGGSGGGGDQNPQIAAHVISEASSKTTSVLQWAEKGYYTMSNNLVTLENGKQLTVKRQGLYYIYAQVTFCSNREASSQAPFIASLCLKSPGRFERILLRAANTHSSAKPCGQQSIHLGGVFELQPGASVFVNVTDPSQVSHGTGFTSFGLLKLGGGGSGGGTGGGGSQVSHRYPRIQSIKVQFTEYKKEKGFILTSQKEDEIMKVQNNSVIINCDGFYLISLKGYFSQEVNISLHYQKDEEPLFQLKKVRSVNSLMVASLTYKDKVYLNVTTDNTSLDDFHVNGGELILIHQNPGEFCVLGGGSGGGQVSHRYPRIQSIKVQFTEYKKEKGFILTSQKEDEIMKVQNNSVIINCDGFYLISLKGYFSQEVNISLHYQKDEEPLFQLKKVRSVNSLMVASLTYKDKVYLNVTTDNTSLDDFHVNGGELILIHQNPGEFCVLGGGSGGGQVSHRYPRIQSIKVQFTEYKKEKGFILTSQKEDEIMKVQNNSVIINCDGFYLISLKGYFSQEVNISLHYQKDEEPLFQLKKVRSVNSLMVASLTYKDKVYLNVTTDNTSLDDFHVNGGELILIHQNPGEFCVL
notes: scDuokine from HEK293, FLAG-purified; VH leader left out; also called single-chain Duokine scCD40L-scOX40L; not shown: N-terminal FLAG tag
B6: scOX40L-scCD40L (ligand)
chain: QVSHRYPRIQSIKVQFTEYKKEKGFILTSQKEDEIMKVQNNSVIINCDGFYLISLKGYFSQEVNISLHYQKDEEPLFQLKKVRSVNSLMVASLTYKDKVYLNVTTDNTSLDDFHVNGGELILIHQNPGEFCVLGGGSGGGQVSHRYPRIQSIKVQFTEYKKEKGFILTSQKEDEIMKVQNNSVIINCDGFYLISLKGYFSQEVNISLHYQKDEEPLFQLKKVRSVNSLMVASLTYKDKVYLNVTTDNTSLDDFHVNGGELILIHQNPGEFCVLGGGSGGGQVSHRYPRIQSIKVQFTEYKKEKGFILTSQKEDEIMKVQNNSVIINCDGFYLISLKGYFSQEVNISLHYQKDEEPLFQLKKVRSVNSLMVASLTYKDKVYLNVTTDNTSLDDFHVNGGELILIHQNPGEFCVLGGGGSGGGTGGGGSGDQNPQIAAHVISEASSKTTSVLQWAEKGYYTMSNNLVTLENGKQLTVKRQGLYYIYAQVTFCSNREASSQAPFIASLCLKSPGRFERILLRAANTHSSAKPCGQQSIHLGGVFELQPGASVFVNVTDPSQVSHGTGFTSFGLLKLGGGSGGGGDQNPQIAAHVISEASSKTTSVLQWAEKGYYTMSNNLVTLENGKQLTVKRQGLYYIYAQVTFCSNREASSQAPFIASLCLKSPGRFERILLRAANTHSSAKPCGQQSIHLGGVFELQPGASVFVNVTDPSQVSHGTGFTSFGLLKLGGGSGGGGDQNPQIAAHVISEASSKTTSVLQWAEKGYYTMSNNLVTLENGKQLTVKRQGLYYIYAQVTFCSNREASSQAPFIASLCLKSPGRFERILLRAANTHSSAKPCGQQSIHLGGVFELQPGASVFVNVTDPSQVSHGTGFTSFGLLKL
notes: scDuokine from HEK293, FLAG-purified; VH leader left out; also called single-chain Duokine scOX40L-scCD40L; not shown: N-terminal FLAG tag

What was measured:
OX40 receptor on cells [1] = biological target: T1, OX40 receptor on cells; test: cell-based or functional assay
4-1BB-Fc = biological target: T4, 4-1BB-Fc (human, UniProt Q07011 24-186); test: ELISA, coated receptor-Fc
T4 construct: extracellular domain; hinge included for covalent assembly; also called 4-1BB receptor-Fc fusion protein; not shown: human Fc gamma 1 region including the hinge region

CD40-Fc [2] = biological target: T5, CD40-Fc (human, UniProt P25942 21-193); test: ELISA, coated receptor-Fc
T5 construct: extracellular domain; hinge included for covalent assembly; also called CD40 receptor-Fc fusion protein; not shown: human Fc gamma 1 region including the hinge region
T5 sequence (P25942 21-193 limits assumed): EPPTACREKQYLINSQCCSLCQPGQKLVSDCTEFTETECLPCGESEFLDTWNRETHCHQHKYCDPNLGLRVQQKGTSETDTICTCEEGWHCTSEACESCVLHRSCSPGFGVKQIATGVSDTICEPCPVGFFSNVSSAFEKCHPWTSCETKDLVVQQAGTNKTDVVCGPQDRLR

CD27-Fc [3] = biological target: T2, CD27-Fc; test: ELISA, coated receptor-Fc
Method: (§1) Receptor binding of the single-chain Duokines was analyzed by ELISA using fusion proteins of the extracellular region of CD40, CD27, 4-1BB and OX40, respectively, with the human Fcγ1 region including the hinge region for covalent assembly (CD40-Fc, CD27-Fc, 4-1BB-Fc, OX40-Fc). Receptor-Fc fusion proteins (200 ng/well) were coated overnight at 4° C. and remaining binding sites were blocked with PBS, 2% skimmed milk powder (2% MPBS). […] The interactions between scDuokine and receptor were dose-dependent with EC₅₀ values in the low nanomolar ranges (FIG. 11 AB, Tab. 2).

OX40-Fc [4] = biological target: T3, OX40-Fc; test: ELISA, coated receptor-Fc
Method: as §1

CD27-Fc [5] = biological target: T2, CD27-Fc; test: ELISA, coated receptor-Fc; remark: listed apart in the source
Method: (§2) Receptor binding of the Duokines was analyzed by ELISA using fusion proteins of the extracellular region of CD40, CD27, 4-1BB and OX40, respectively, with the human Fcγ1 region including the hinge region for covalent assembly (CD40-Fc, CD27-Fc, 4-1BB-Fc, OX40-Fc). Receptor-Fc fusion proteins (200 ng/well) were coated overnight at 4° C. and remaining binding sites were blocked with PBS, 2% skimmed milk powder (2% MPBS).

OX40-Fc [6] = biological target: T3, OX40-Fc; test: ELISA, coated receptor-Fc; remark: listed apart in the source
Method: as §2

OX40 receptor on cells [7] = biological target: T1, OX40 receptor on cells; test: cell-based or functional assay; remark: listed apart in the source
CD27-Fc [8] = biological target: T2, CD27-Fc; test: ELISA, coated receptor-Fc; remark: listed apart in the source
CD40-Fc [9] = biological target: T5, CD40-Fc; test: ELISA, coated receptor-Fc; remark: listed apart in the source
Method: as §2

CD40 receptor on cells [10] = biological target: T6, CD40 receptor on cells (human, UniProt P25942 21-277); test: cell-based or functional assay
T6 sequence (P25942 21-277): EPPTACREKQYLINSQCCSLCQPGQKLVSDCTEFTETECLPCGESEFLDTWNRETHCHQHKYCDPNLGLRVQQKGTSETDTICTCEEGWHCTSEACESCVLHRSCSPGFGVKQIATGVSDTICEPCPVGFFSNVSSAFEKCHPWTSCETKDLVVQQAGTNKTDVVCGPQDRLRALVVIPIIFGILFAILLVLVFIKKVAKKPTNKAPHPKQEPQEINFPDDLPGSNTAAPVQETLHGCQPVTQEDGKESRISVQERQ

CD40 receptor on cells [11] = biological target: T6, CD40 receptor on cells; test: cell-based or functional assay; remark: listed apart in the source
CD40-Fc [12] = biological target: T5, CD40-Fc; test: ELISA, coated receptor-Fc; remark: listed apart in the source
Method: as §1

Binder	Receptor activation (EC50, nM) (OX40 receptor on cells [1]) [nM]	binding result (4-1BB-Fc)	binding result (CD40-Fc [2])	EC50 (CD27-Fc [3]) [nM]	EC50 (OX40-Fc [4]) [nM]	EC50 (CD27-Fc [5]) [nM]	EC50 (OX40-Fc [6]) [nM]	Receptor activation (EC50, nM) (OX40 receptor on cells [7]) [nM]	binding result (CD27-Fc [8])	EC50 (CD40-Fc [9]) [nM]	Receptor activation (EC50, nM) (CD40 receptor on cells [10]) [nM]	Receptor activation (EC50, nM) (CD40 receptor on cells [11]) [nM]	EC50 (CD40-Fc [12]) [nM]
B1	1.49	no binding (tested: 100 nM (FIG. 10))	no binding (tested: 100 nM (FIG. 10))	7.34	286	–	–	–	–	–	–	–	–
B2	–	no binding (tested: 100 nM (FIG. 4))	no binding (tested: 100 nM (FIG. 4))	–	–	6.74	3.16	10.2	–	–	–	–	–
B3	–	no binding (tested: 100 nM (FIG. 4))	–	–	–	–	0.51	0.7	no binding (tested: 100 nM (FIG. 4))	2.18	16.6	–	–
B4	–	no binding (tested: 100 nM (FIG. 4))	–	–	–	–	1.01	0.73	no binding (tested: 100 nM (FIG. 4))	1.45	3.86	–	–
B5	0.57	no binding (tested: 100 nM (FIG. 10))	–	–	1.33	–	–	–	no binding (tested: 100 nM (FIG. 10))	–	–	9.54	40.2
B6	0.51	no binding (tested: 100 nM (FIG. 10))	–	–	2.13	–	–	–	no binding (tested: 100 nM (FIG. 10))	–	–	3.22	6.74
